From patent US20170007595A1, “NSD3 INHIBITORS FOR TREATMENT OF CANCERS” (THE BRIGHAM AND WOMEN'S HOSPITAL, INC., priority 2014, published 2017)

How the values were obtained:
[1] = test system: 797TRex cells; assay: differentiation of 797TRex cells on induced expression of construct (involucrin immunoblot, H&E, IHC); format: cell-based, human; conditions: induced expression for 120 h
Description: BRD4 ET domain containing fragment (BRD4 444-722) was cloned into pcDNA5 FRT/TO-FLAG (Invitrogen) with an N-terminal SV40 NLS sequence to generate pcDNA5 FRT/TO-Flag-NLS-BRD4-ET (p6894). MSCV-CMV-Flag-HA-NSD3 (p6351) has been described previously (8). To make tetracycline-inducible N- and C-terminal BioTAP-tagged constructs, the inventors transferred the gateway destination cassette from pHAGE-TRE (gift of Steven Elledge) to the pcDNA5 frt/to mammalian expression vector with N-terminal BioTAP tandem tag to make pcDNA5 frt/to-DEST-NBioTAP. NSD3-NUT was constructed by fusion PCR into pDONR223, then transferred into the pcDNA5 frt/to-DEST-NBioTAP vector by gateway cloning. Full length NSD3, NSD3Tr encoding amino acids 1-569 of NSD3, full length NUT, BRD4-NUT (derived from pcDNA5 frt/to FLAG-BRD4-NUT (17)) were PCR-cloned into pDONR223, then transferred by gateway cloning into the pHAGE-P CMVt N-HA GAW expression vector derived from the PHAGE lentiviral vector (52).
NMC cell lines, TC-797 (15) 10-15 (6), 8645(17), 293T, U205, and C33A cells were maintained as monolayer cultures in Dulbecco Modified Eagle medium (DMEM) (Invitrogen) supplemented with 10% (v/v) Fetal Bovine Serum (FBS, SH3008803, Hyclone) and 1% pen-strep (GIBCO/Invitrogen). […]

[2] = biological target: T1, BRD4-NUT foci (Homo sapiens, UniProt O60885+Q86Y26); assay: immunofluorescence co-localization in 797TRex cells; format: cell-based; conditions: HA-tagged, induced 24 h
T1 construct: composed of the N-terminal of BRD4 (amino acids 1-720 out of 1372); endogenous in cells; host or cells: 797TRex cells (tet-inducible derivative of the BRD4-NUT-positive NMC line TC-797)
Procedure: Immunofluorescence on TC-797 cells was performed as described (55) and nuclei were counterstained with ProLong® Gold antifade reagent with 4′,6-diamidino-2-phenylindole (DAPI) (Life Technologies). Primary antibodies used were anti-NUT (1:1000, rabbit monoclonal clone C52, Cell Signaling Technology), and anti-HA (1:500, mouse monoclonal, Sigma-Aldrich). Secondary antibodies included goat anti-rabbit Alexa Fluor 594 and goat anti-mouse Alexa Fluor 488 (1:1000, Life Technologies, Grand Island, N.Y.). Photos were taken on a Nikon Eclipse E600 fluorescent microscope (Melville, N.Y.) using a Spot RTSlider camera (Diagnostic Instruments, Inc., Sterling Heights, Mich.), and Spot Advanced software (Diagnostic Instruments, Inc.).

[3] = biological target: T2, BRD4 (Homo sapiens, UniProt O60885); assay: anti-HA co-immunoprecipitation in C33A-6TR cells; format: binding; conditions: HA-tagged construct, C33A cervical carcinoma cells
T2 construct: endogenous in cells; host or cells: C33A-6TR (tet-repressor-positive C33A cervical carcinoma cells)
Procedure: For co-immunoprecipitation experiments of HA-tagged proteins, C33A-6TR cells stably expressing HA-tagged constructs under a Tet-inducible promoter were used. Protein extracts were prepared 24 h after transfection or induction with Doxycycline (1 μg/ml). Cells were lysed in lysis buffer (50 mM Tris-HCl [pH 7.5], 150 mM NaCl, 0.5% Nonidet P-40) with freshly added protease inhibitors (Roche Complete, EDTA free protease inhibitor cocktail, Roche, Indianapolis, Ind.). Extracts were adjusted for protein concentration and 10% of extracts were used as Input Immunoprecipitations were performed using 15 μl of HA-resin (Sigma A2095). Extracts were incubated overnight at 4° C., and precipitated proteins were detected by Western blot analysis.

[4] = test system: 797TRex cells; assay: luminescent cell viability assay (CellTiter-Glo), 797TRex; format: cell-based, human; conditions: induced ET domain expression for 120 h
Procedure: (§1) Cells were plated at a density of 3000 per well in a 96-well plate, and CellTiter-Glo (Promega, Madison, Wis.) was used to determine cell viability as a measure of ATP content according to the manufacturer's instructions.

[5] = test system: U2OS cells; assay: luminescent cell viability assay (CellTiter-Glo), U2OS; format: cell-based; conditions: induced ET domain expression for 120 h
Procedure: as §1

[6] = test system: 293T cells; assay: luminescent cell viability assay (CellTiter-Glo), 293T; format: cell-based; conditions: induced ET domain expression for 120 h
Procedure: as §1

| Molecule | differentiation (morphology, involucrin) [1] | co-localization with BRD4-NUT foci [2] | co-immunoprecipitation of BRD4 [3] | proliferation rate (cell viability, CellTiter-Glo) [4] | growth (cell viability, CellTiter-Glo) [5] | growth (cell viability, CellTiter-Glo) [6] |
| --- | --- | --- | --- | --- | --- | --- |
| NSD3Tr: portion of NSD3 present in NSD3-NUT, amino acids 1-569 of NSD3, HA- or BioTAP-tagged, inducibly expressed (protein, left off: large carriers; small tags and cut ends, portion of NSD3 present in NSD3-NUT, amino acids 1-569 of NSD3, HA- or BioTAP-tagged, inducibly expressed) MDFSFSFMQGIMGNTIQQPPQLIDSANIRQEDAFDNNSDIAEDGGQTPYEATLQQGFQYPATTEDLPPLTNGYPSSISVYETQTKYQSYNQYPNGSANGFGAVRNFSPTDYYHSEIPNTRPHEILEKPSPPQPPPPPSVPQTVIPKKTGSPEIKLKITKTIQNGRELFESSLCGDLLNEVQASEHTKSKHESRKEKRKKSNKHDSSRSEERKSHKIPKLEPEEQNRPNERVDTVSEKPREEPVLKEEAPVQPILSSVPTTEVSTGVKFQVGDLVWSKVGTYPWWPCMVSSDPQLEVHTKINTRGAREYHVQFFSNQPERAWVHEKRVREYKGHKQYEELLAEATKQASNHSEKQKIRKPRPQRERAQWDIGIAHAEKALKMTREERIEQYTFIYIDKQPEEALSQAKKSVASKTEVKKTRRPRSVLNTQPEQTNAGEVASSLSSTEIRRHSQRRHTSAEEEEPPPVKIAWKTAAARKSLPASITMHKGSLDLQKCNMSPVVKIEQVFALQNATGDGKFIDQFVYSTKGIGNKTEISVRGQDRLIISTPNQRNEKPTQSVSSPEATSGST | found to induce differentiation | co-localized with BRD4-NUT foci | co-immunoprecipitated BRD4 | – | – | – |
| ET domain: BRD4 ET domain containing fragment (BRD4 444-722) with N-terminal SV40 NLS, FLAG-tagged, tet-inducibly expressed (protein, left off: small tags and cut ends, BRD4 ET domain containing fragment (BRD4 444-722) with N-terminal SV40 NLS, FLAG-tagged, tet-inducibly expressed) KLQDVFEMRFAKMPDEPEEPVVAVSSPAVPPPTKVVAPPSSSDSSSDSSSDSDSSTDDSEEERAQRLAELQEQLKAVHEQLAALSQPQQNKPKKKEKDKKEKKKEKHKRKEEVEENKKSKAKEPPPKKTKKNNSSNSNVSRKEPAPMKSKPPPTYESEEEDKCKPMSYEEKRQLSLDINLPGEKLGRVVHIIQSREPSLKNSNPDEIEIDFETLKPSTLRELERYVTSCLRKKRKPQAEICVDVIAGSSKMKGFSSSESESSSESSSSDSEDSETEMAP | inducing differentiation morphologically and immunophenotypically | – | – | negatively affected the proliferation rate | unaffected | unaffected |
